Measurements from paper PMC2710508.

What was measured:
[1] = molecular target: F-actin from chicken pectoral skeletal muscle (chicken) (UniProt P68139); assay: differential scanning calorimetry; tropomyosin 15 µM and TnT 70–170 18 µM with phalloidin (36 µM) stabilized F-actin (24 µM), 100 mM NaCl, 10 mM Hepes pH 7.0, 2 mM MgCl2, 1 mM DTT; three heating scans at 1°C/min; peak of unfolding/dissociation of actin-bound tropomyosin
[2] = molecular target: F-actin from chicken pectoral skeletal muscle (chicken) (UniProt P68139); assay: co-sedimentation; tropomyosin 0.1–10 µM with 0.12–12 µM troponin T 70–170 (1.2× molar excess) and 5 µM F-actin, 20°C, 250 mM NaCl, 10 mM TrisHCl pH 7.5, 2 mM MgCl2, 0.5 mM DTT; pellets and supernatants by SDS-PAGE and densitometry; apparent constant (Kapp) and Hill coefficient from a fit to the Hill equation
F-actin = F-actin (UniProt P68133); assay: given as Ka; conditions: cited from earlier work

| Substance | DSC TM of dissociation from F-actin (TM3) [1] | DSC ΔΔH (with minus without F-actin) [1] | Ka [2] | association constant (Ka) (F-actin) |
| --- | --- | --- | --- | --- |
| P5→P3 tropomyosin (residues 165–188 of P5 replace residues 88–111 of P3) (from UniProt P04692 1-284) (natural protein) | 37.6 °C | 37.6 kcal/mol | 1.33e+06 M⁻¹ | – |
| tropomyosin (from UniProt P09493) | – | – | – | 400 µM |
